# Where “and” joins values, the source holds several entries; their conditions need not be identical. Equal values may be shown once.
# T1: Lsb1, P53281
# T1 sequence (P53281 45-122, looked up): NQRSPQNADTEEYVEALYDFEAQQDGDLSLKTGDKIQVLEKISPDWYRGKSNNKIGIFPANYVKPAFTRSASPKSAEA
# T2: Hse1, P38753
# T2 sequence (P38753 208-285, looked up): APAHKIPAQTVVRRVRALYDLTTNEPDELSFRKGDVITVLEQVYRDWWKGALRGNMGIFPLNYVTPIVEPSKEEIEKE
# T3: Sla1-3, P32790
# T3 sequence (P32790 344-424, looked up): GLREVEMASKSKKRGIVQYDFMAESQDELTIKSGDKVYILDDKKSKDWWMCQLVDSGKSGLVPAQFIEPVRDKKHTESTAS
# T4: Lsb4, P32793
# T4 sequence (P32793 402-468, looked up): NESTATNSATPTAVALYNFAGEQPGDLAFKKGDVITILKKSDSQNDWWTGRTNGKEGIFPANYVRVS
# T5: Abp1, P15891
# T5 sequence (P15891 535-592, looked up): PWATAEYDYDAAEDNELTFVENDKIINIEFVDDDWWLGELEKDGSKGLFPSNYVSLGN
# T6: Hof1, Q05080
# T6 sequence (Q05080 590-669, looked up): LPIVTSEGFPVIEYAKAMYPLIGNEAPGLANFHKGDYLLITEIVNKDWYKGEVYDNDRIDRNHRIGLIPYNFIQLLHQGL
# T7: Pin3, Q06449
# T7 sequence (Q06449 53-122, looked up): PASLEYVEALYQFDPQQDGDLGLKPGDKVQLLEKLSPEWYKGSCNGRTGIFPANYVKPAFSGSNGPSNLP
# T8: Cdc25, P04821
# T8 sequence (P04821 50-136, looked up): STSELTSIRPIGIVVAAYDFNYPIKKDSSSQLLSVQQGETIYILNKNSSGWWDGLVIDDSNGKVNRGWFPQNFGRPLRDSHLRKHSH
# T9: Sla1-2, P32790
# T9 sequence (P32790 60-140, looked up): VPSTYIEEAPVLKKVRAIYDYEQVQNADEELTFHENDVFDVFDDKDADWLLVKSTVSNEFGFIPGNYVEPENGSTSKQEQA
# T10: Lsb3, P43603
# T10 sequence (P43603 385-451, looked up): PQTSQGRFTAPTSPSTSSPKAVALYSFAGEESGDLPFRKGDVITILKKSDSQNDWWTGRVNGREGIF
# T11: Boi2, P39969
# T11 sequence (P39969 32-116, looked up): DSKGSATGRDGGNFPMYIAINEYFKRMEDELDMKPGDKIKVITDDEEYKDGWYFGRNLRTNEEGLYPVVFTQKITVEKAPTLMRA
# T12: Bbc1, P47068
# T12 sequence (P47068 1-78, looked up): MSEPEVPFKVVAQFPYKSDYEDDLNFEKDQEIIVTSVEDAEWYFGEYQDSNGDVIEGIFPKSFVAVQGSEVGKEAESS
# T13: Cyk3, Q07533
# T13 sequence (Q07533 1-83, looked up): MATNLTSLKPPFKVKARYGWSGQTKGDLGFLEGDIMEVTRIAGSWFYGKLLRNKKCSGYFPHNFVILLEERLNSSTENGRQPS
# T14: Bzz1-2, P38822
# T14 sequence (P38822 568-633, looked up): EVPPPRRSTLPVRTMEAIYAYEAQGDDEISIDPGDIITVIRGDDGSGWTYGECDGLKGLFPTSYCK
# T15: Fus1, P11710
# T15 sequence (P11710 432-512, looked up): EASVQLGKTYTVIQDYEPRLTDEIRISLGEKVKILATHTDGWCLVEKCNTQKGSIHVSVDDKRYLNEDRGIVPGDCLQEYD
# T16: Boi1, P38041
# T16 sequence (P38041 1-86, looked up): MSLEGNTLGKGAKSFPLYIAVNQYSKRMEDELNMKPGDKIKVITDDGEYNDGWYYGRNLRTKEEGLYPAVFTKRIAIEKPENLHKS
# T17: Nbp2, Q12163
# T17 sequence (Q12163 103-180, looked up): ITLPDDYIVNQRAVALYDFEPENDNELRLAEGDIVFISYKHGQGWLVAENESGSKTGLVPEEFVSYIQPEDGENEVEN
# T18: Bzz1-1, P38822
# T18 sequence (P38822 478-572, looked up): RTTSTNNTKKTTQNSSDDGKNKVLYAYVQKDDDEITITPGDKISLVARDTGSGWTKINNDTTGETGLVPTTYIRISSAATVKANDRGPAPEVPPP
# T19: Bud14, P27637
# T19 sequence (P27637 247-328, looked up): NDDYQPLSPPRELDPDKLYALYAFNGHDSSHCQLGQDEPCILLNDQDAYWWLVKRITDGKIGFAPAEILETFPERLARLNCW
# T20: Myo5, Q04439
# T20 sequence (Q04439 1072-1160, looked up): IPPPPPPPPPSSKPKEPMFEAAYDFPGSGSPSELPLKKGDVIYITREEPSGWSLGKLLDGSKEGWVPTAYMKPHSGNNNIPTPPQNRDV
# T21: Pex13, P80667
# T21 sequence (P80667 295-386, looked up): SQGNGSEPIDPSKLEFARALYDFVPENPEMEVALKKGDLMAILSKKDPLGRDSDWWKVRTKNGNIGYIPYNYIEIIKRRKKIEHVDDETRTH
# Target: T1, Lsb1, P53281
# Test: SPOT array
# Conditions: median of control spots 388
row,SPOT intensity,Binder
1,64,GPPPPLPPPLFPSSS

# Target: T2, Hse1, P38753
# Test: SPOT array
# Conditions: median of control spots 1727
row,SPOT intensity,Binder
1,2790 and 3860,SPAPIVPREPLRNEP
2,307 and 687,RHLKNIPRIPIFSIL
3,0,GPPPPLPPPLFPSSS

# Target: T3, Sla1-3, P32790
# Test: SPOT array
# Conditions: median of control spots 5475
row,Binder,SPOT intensity
1,SPAPIVPREPLRNEP,3540 and 3050
2,GPPPPLPPPLFPSSS,0

# Other lines, results leading:
row,SPOT intensity,Binder
1,992 and 402,RHLKNIPRIPIFSIL
2,9 and 7,VSKLRSPNTPRRLRK

# Target: T4, Lsb4, P32793
# Test: SPOT array
# Conditions: median of control spots 397
row,Binder,SPOT intensity
1,SPAPIVPREPLRNEP,114 and 89
2,GPPPPLPPPLFPSSS,10

# Further lines, results first:
row,SPOT intensity,Binder
1,4 and 7,RHLKNIPRIPIFSIL
2,206 and 92,VSKLRSPNTPRRLRK

# Target: T5, Abp1, P15891
# Test: SPOT array
# Conditions: median of control spots 935
row,Binder,SPOT intensity
1,SPAPIVPREPLRNEP,122 and 106
2,GPPPPLPPPLFPSSS,6

# Now from value to binder:
row,SPOT intensity,Binder
1,49 and 31,RHLKNIPRIPIFSIL
2,216 and 273,VSKLRSPNTPRRLRK

# Target: T6, Hof1, Q05080
# Test: SPOT array
# Conditions: median of control spots 4086
row,SPOT intensity,Binder
1,1550 and 3190,SPAPIVPREPLRNEP
2,5560 and 3670,RHLKNIPRIPIFSIL
3,1690,GPPPPLPPPLFPSSS

# Target: T7, Pin3, Q06449
# Test: SPOT array
# Conditions: median of control spots 2171
row,Binder,SPOT intensity
1,SPAPIVPREPLRNEP,721 and 289
2,GPPPPLPPPLFPSSS,0

# The next lines start with the values.
row,SPOT intensity,Binder
1,84,RHLKNIPRIPIFSIL
2,5 and 3,VSKLRSPNTPRRLRK

# Target: T8, Cdc25, P04821
# Test: SPOT array
# Conditions: median of control spots 969
row,Binder,SPOT intensity
1,SPAPIVPREPLRNEP,240 and 142
2,GPPPPLPPPLFPSSS,0

# Continued, values first:
row,SPOT intensity,Binder
1,230 and 113,RHLKNIPRIPIFSIL
2,55 and 39,VSKLRSPNTPRRLRK

# Target: GST
# Test: SPOT array
# Conditions: median of control spots 978
row,SPOT intensity,Binder
1,1000 and 337,SPAPIVPREPLRNEP
2,3 and 1,VSKLRSPNTPRRLRK
3,0,GPPPPLPPPLFPSSS

# Target: T9, Sla1-2, P32790
# Test: SPOT array
# Conditions: median of control spots 712
row,SPOT intensity,Binder
1,0,RHLKNIPRIPIFSIL
2,0,VSKLRSPNTPRRLRK
3,0,GPPPPLPPPLFPSSS

# Target: T10, Lsb3, P43603
# Test: SPOT array
# Conditions: median of control spots 406
row,SPOT intensity,Binder
1,46 and 25,SPAPIVPREPLRNEP
2,72 and 49,VSKLRSPNTPRRLRK
3,0,GPPPPLPPPLFPSSS

# Target: T11, Boi2, P39969
# Test: SPOT array
# Conditions: median of control spots 1161
row,SPOT intensity,Binder
1,28 and 50,SPAPIVPREPLRNEP
2,3 and 1,RHLKNIPRIPIFSIL
3,0,GPPPPLPPPLFPSSS

# Target: Bem1-1, P29366
# Test: SPOT array
# Conditions: median of control spots 4282
# Sequence of Bem1-1, P29366 (P29366 55-141): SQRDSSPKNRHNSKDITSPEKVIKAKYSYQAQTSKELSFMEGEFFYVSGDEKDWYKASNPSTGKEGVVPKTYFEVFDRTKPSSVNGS
row,Binder,SPOT intensity
1,SPAPIVPREPLRNEP,3190 and 3200
2,GPPPPLPPPLFPSSS,0

# Further lines, results first:
row,SPOT intensity,Binder
1,823 and 2170,RHLKNIPRIPIFSIL
2,1 and 3,VSKLRSPNTPRRLRK

# Target: T12, Bbc1, P47068
# Test: SPOT array
# Conditions: median of control spots 796
row,Binder,SPOT intensity
1,SPAPIVPREPLRNEP,49 and 40
2,GPPPPLPPPLFPSSS,0

# Continued, values first:
row,SPOT intensity,Binder
1,25 and 23,RHLKNIPRIPIFSIL
2,223 and 226,VSKLRSPNTPRRLRK

# Target: T13, Cyk3, Q07533
# Test: SPOT array
# Conditions: median of control spots 1451
row,Binder,SPOT intensity
1,SPAPIVPREPLRNEP,241 and 231
2,GPPPPLPPPLFPSSS,0

# The remaining lines, values ahead:
row,SPOT intensity,Binder
1,1 and 3,RHLKNIPRIPIFSIL
2,2 and 1,VSKLRSPNTPRRLRK

# Target: T14, Bzz1-2, P38822
# Test: SPOT array
# Conditions: median of control spots 4538
row,SPOT intensity,Binder
1,4030 and 3640,SPAPIVPREPLRNEP
2,394 and 164,RHLKNIPRIPIFSIL
3,0,GPPPPLPPPLFPSSS

# Target: Sho1, P40073
# Test: SPOT array
# Conditions: median of control spots 1148
# Sequence of Sho1, P40073 (P40073 287-367): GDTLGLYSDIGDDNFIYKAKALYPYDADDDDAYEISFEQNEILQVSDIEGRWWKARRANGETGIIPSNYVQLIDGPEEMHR
row,Binder,SPOT intensity
1,SPAPIVPREPLRNEP,138 and 78
2,GPPPPLPPPLFPSSS,0

# Second part, the binder after the results:
row,SPOT intensity,Binder
1,160 and 101,RHLKNIPRIPIFSIL
2,267 and 126,VSKLRSPNTPRRLRK

# Target: Bem1-2, P29366
# Test: SPOT array
# Conditions: median of control spots 4347
# Sequence of Bem1-2, P29366 (P29366 139-227): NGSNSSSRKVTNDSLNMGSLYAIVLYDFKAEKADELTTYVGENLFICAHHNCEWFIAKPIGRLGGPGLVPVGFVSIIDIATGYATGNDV
row,SPOT intensity,Binder
1,2910 and 3310,SPAPIVPREPLRNEP
2,4830 and 2260,RHLKNIPRIPIFSIL
3,0,GPPPPLPPPLFPSSS

# Target: T15, Fus1, P11710
# Test: SPOT array
# Conditions: median of control spots 1200
row,SPOT intensity,Binder
1,227 and 99,SPAPIVPREPLRNEP
2,1870 and 1460,RHLKNIPRIPIFSIL
3,0,GPPPPLPPPLFPSSS

# Target: T16, Boi1, P38041
# Test: SPOT array
# Conditions: median of control spots 1162
row,Binder,SPOT intensity
1,SPAPIVPREPLRNEP,45 and 64
2,GPPPPLPPPLFPSSS,0

# Continued, values first:
row,SPOT intensity,Binder
1,14 and 10,RHLKNIPRIPIFSIL
2,8 and 4,VSKLRSPNTPRRLRK

# Target: Myo3, P36006
# Test: SPOT array
# Conditions: median of control spots 468
row,Binder,SPOT intensity
1,SPAPIVPREPLRNEP,122 and 104
2,GPPPPLPPPLFPSSS,575

# The next lines start with the values.
row,SPOT intensity,Binder
1,14 and 19,RHLKNIPRIPIFSIL
2,8 and 6,VSKLRSPNTPRRLRK

# Target: T17, Nbp2, Q12163
# Test: SPOT array
# Conditions: median of control spots 357
row,SPOT intensity,Binder
1,184 and 63,RHLKNIPRIPIFSIL
2,0,VSKLRSPNTPRRLRK
3,0,GPPPPLPPPLFPSSS

# Target: T18, Bzz1-1, P38822
# Test: SPOT array
# Conditions: median of control spots 4446
row,SPOT intensity,Binder
1,3070 and 3750,SPAPIVPREPLRNEP
2,0,VSKLRSPNTPRRLRK
3,0,GPPPPLPPPLFPSSS

# Target: T19, Bud14, P27637
# Test: SPOT array
# Conditions: median of control spots 956
row,Binder,SPOT intensity
1,SPAPIVPREPLRNEP,184 and 188
2,GPPPPLPPPLFPSSS,0

# The remaining lines, values ahead:
row,SPOT intensity,Binder
1,16 and 18,RHLKNIPRIPIFSIL
2,6,VSKLRSPNTPRRLRK

# Target: T20, Myo5, Q04439
# Test: SPOT array
# Conditions: median of control spots 471
row,SPOT intensity,Binder
1,88 and 90,SPAPIVPREPLRNEP
2,5 and 3,RHLKNIPRIPIFSIL
3,362,GPPPPLPPPLFPSSS

# Target: Rvs167, P39743
# Test: SPOT array
# Conditions: median of control spots 2707
# Sequence of Rvs167, P39743 (P39743 419-482): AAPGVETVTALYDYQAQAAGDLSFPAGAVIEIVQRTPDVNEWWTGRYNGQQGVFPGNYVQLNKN
row,SPOT intensity,Binder
1,2590 and 3300,SPAPIVPREPLRNEP
2,0,GPPPPLPPPLFPSSS

# Target: T21, Pex13, P80667
# Test: SPOT array
# Conditions: median of control spots 1341
row,Binder,SPOT intensity
1,SPAPIVPREPLRNEP,403 and 875
2,GPPPPLPPPLFPSSS,725

# Continued, values first:
row,SPOT intensity,Binder
1,163 and 113,RHLKNIPRIPIFSIL
2,3 and 1,VSKLRSPNTPRRLRK

# Reference: article PMC2756588
